Reference: the domain aggregation screens of Martell et al. (2025)

Assay: soluble fraction after stress (log2 fold change); higher = more stays soluble; pooled small domains, quantitative proteomics
Settings: stress: 75 degC
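Further: 20 min heating vs room temperature control held 20 min.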

Sequence	soluble fraction (log2)
HMSDKPRYYINGNTLFISDKSVKKVLFSDLSGRSILHTTETAINIATFRGAHILTVIYTDGSTKSEVIF	-1.47
HMGEVQALIPGLVSKLFVVEGESVKIGQKLIILEAMKMENEIASPINGTIKKIYIKSGDKIDKGSIIMEIT	-3.41
HMTGVPYLVRVKITDLHIRSGPGTNYASKGFIAPGAYTIVEESTGQGAALWGKLKSGKGWIALGYTEK	-2.13
HMGIRYQLADDVTDEQITAMTGKKAKIAAAIKAAGSAVSKMNVAGEMGYDKQNPINKDFMELVDAGIIVPS	-0.0507
HMQSMEIDENEIPSIDKLSEYIEYFKRIYNALFDDKQLAITNIDVLERHFANNFNTLRFKMDE	0.169
HMTAYEGLPVTLIIDGRVFQQNLQKMNLSVEWLRLELKKFGVTNLKEVLFASLDTEGKLFYQLKT	-0.792
HMGAYITYEVKPGDTLWDIANKFPGVSADNIKTWNKVDELIKAGERLKINTQTITDYSPDKYPS	-0.242
HMQKPIKPVKMHTVGPKENLSSIGRMYEVNGRVLANYNNIDYDKGLTIGQVLKIPPKGTTLEQVT	0.853
HMEDKIEESLEDNISELFAKTKDKYTLINDLYSKGYTVEELSRFSGLPSGEVRLVISLNSKN	-0.0653
HMPEDQISYTDLIKQINDGNVEKIKMTVGSTTIKVNLKEQEEPKTAIVPSTQAFIELVQEKVQDGNEITLI	0.164
HMTNVYSLIGKRGIVVEDIDWQKGTGQVKIDGELWSVKTNEQINISKGTEVEVENIEGVKVFVKPI	-0.121
HMTKQDYLTALQQELNKNAVADAEDIVSEYEQHFQFKLADGFTEEEIAAKLGAPAQIALQFAG	0.826
HMTGGMVTYIIEKGEGFFSLERKFGLSENELIKLNPSLKSGLKSEMQINIPKENYDRYVASS	-0.45
HMSLRGEKTYDEAHQKLIKSAVELFKNPLVSPEKITVSQIAKHAGVSVATAYNHFPENKLDIYGSIF	-0.203
HMESAVDVFRSILKEKGVTEEEVRQVVAARGKYTLETPIDDYPNEFLYGYVIRYWDQIFDIIQQSREAK	-1.06
HMSLEDYVIIKNKTVKVYETEFDGAPVVTSSSVGQKLILVEYNDNFAKILYRAKDGLDYVGYIKRKDVYVR	-2.55
HMTLAAATESREYLADLARRLDAADHGDKTRIKAEAAGLLGWSMATLHARLARDVGWTSGRK	-0.241
HMQRYYDVLGLQKGVSPEELKKTYRELSKKYHPDAHHNSPLRDLAEAKFKEINEAYEKIKEFLDNNF	-0.207
HMEPDEYTVRQAFMKFDVGGEGRVPRDKLKALLETLGLELSAQQVRESEEQLDPEGTGFTSYGDFLMWWN	-0.793

Sequence	soluble fraction (log2)
HMASANMPDVLGLDAETAKQVLAAKGFTKVEIYPMESSEPANRVVRQSEDRDTMVALTKEILLGVSNGS	0.0531
HMHAPRIEVVQIDPEKIGALIGPGGKNIRRITEVTGANLDIDEDNSGKIRVYASDSEAMNRALQEIDLVT	0.308
HMAGTKRAENIEIQKLTEVLEARLDSVGFFWPDHKAESMIMTLRNMISRLPLTEADVRVFHGIIKSLADK	-0.486
HMIADSSSIHQDAKQQLHSYLRTNIQPLMRAGKQLDLKDILHHVTIRKPKLVQQLGMKQVQHMVQVLLD	-1.04
HMVNIEAEVGRRLRQLRARRGLSLRALADLSGLNVNTLSLIENSKTSPSVSTLQQLARSLQVPITTFFESD	-1.36
HMGESYGPVRRGETLWSIAEKVKPAGVSTQKELAAIYAANPQAFIRGDINLLKAGAELRLPSPEAL	-0.0179
HMSDESRAEIVSSAKRLFQQYGYKKTTVSDIAKAMGKVKSAIYYYFPDKESLLRAVIDEEVG	0.0318
HMNREEFLSQLERLLYDIPAQEREEALEYYNGYFDDAGKEKEAEVIQELGSPGKVAAIIKADLSG	0.12
HMDDGARQLVDQLNRLIANPAVSARIIHGYLILEGRVESEWEKTRTLLLAQVAGLPVIDLITVS	-2.35
HMLERPLKLKSHYVSTIYEKVAVQYSEGEEKKSVMGTLIEVNQDTIVLDDRGTIIEIPFKSITRAKTVF	-3.6
HMASVLTGMLGRVTGELAPKGIVMVGNETWTAVSEDDSVIRIGEPVEVRSVEGLILTVFRRID	-2.66
HMNERLKQLRLSLNLNQEEFGKWLGISKSGVSDIESGRRKVTEQHIIMLSNHNISEKWLRTGEGEMFV	-1.21
HMNPNSIDEKLKLLSNREKEVAILVLKKLSYFEISEQLNITIRTVKAHTKNIYEKFNVSNRLAFLLLFN	-0.00667
HMDKEKLQEKLLQIFEAEPQKKFQVQDLVKVLDMEGAGQFKFVVQALADLEHNKQIKLSEDDTFSLIVKE	-0.173
HMVMETLAERINTALQTKGLSVNALARRVGVSYPAMRKITKGETLNPKFLFEIAEALGVSVEWLKTGEGSP	-1.34
HMAPAPYLVKVTANKLNIRSGPGTNYKIQGAITDKGTYTIVDTQGRWGKLKSGAGWIYLNYTKK	-1.98
HMELNFEGFYRFVRDELNVDLNAYKEKQLKRRIATVMKSSGALTLEDYSRLIANDEVIRNKFLDYITI	-3.37
HMKLSLKTQVKEYLLSYIRDKKLQPGDRLLTQRELAEMLHTSQKVAQMALNSLEEEGIIIRRLGSGSFLAR	-1.31
HMVEIGENIKKLRKAKRMTQKEVANQLNVTPQTISKWERNISYPDLDMLVKLSQLFHISTDALL	-0.553
